Test results: patent US20130330346A1 (Novartis, published 2013)

T1: Human CXCR2 (human, UniProt P25025 1-360)
T1 sequence: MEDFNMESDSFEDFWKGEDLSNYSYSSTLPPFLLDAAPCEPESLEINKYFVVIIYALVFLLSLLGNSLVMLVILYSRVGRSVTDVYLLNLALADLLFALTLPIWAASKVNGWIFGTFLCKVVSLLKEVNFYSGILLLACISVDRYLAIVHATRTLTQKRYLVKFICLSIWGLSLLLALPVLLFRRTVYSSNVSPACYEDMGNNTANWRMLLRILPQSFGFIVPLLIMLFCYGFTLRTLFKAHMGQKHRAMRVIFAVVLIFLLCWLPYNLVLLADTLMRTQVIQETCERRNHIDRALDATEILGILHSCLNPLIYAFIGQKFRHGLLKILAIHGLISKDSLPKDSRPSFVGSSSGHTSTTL

T2: Cynomolgus CXCR2 (cynomolgus, UniProt Q28519 3-353 (rhesus entry))
T2 chain: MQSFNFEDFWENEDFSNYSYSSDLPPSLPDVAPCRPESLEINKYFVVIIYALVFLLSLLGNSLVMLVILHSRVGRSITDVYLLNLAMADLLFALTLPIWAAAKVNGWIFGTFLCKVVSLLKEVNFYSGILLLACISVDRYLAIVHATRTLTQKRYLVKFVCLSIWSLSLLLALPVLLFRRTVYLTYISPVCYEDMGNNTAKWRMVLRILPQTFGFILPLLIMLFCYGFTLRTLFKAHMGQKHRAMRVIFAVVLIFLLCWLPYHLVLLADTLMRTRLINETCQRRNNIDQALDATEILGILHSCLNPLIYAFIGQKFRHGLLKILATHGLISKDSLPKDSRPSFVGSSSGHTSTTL

B1: CXCR20025 (bispecific antibody)
chain: EVQLVESGGGLVQAGGSLRLSCAASGRTFSDYAMGWFRQAPGKEREFVAAITWNGGRVFYTASVKGRFTISRDNAKNTMYLQMNSLKPEDTAVYYCAADKDRRTDYLGHPVAYWGQGTQVTVSSGGGGSGGGGSGGGGSGGGGSGGGGSGGGGSGGGGSEVQLVESGGGLVQAGESLRLSCAASGSTFDFKVMGWYRQPPGKQREGVAAIRLSGNMHYAESVKGRFTISKANAKNTVYLQMNSLRPEDTAVYYCKVNIRGQDYWGQGTQVTVSS
notes: Biparatopic: two VHH joined by a GlySer linker; also called 163D2-35GS-127D1; not shown: C-terminal c-myc tag and His6 tag coded by pAX100
B2: CXCR20021 (bispecific antibody)
chain: EVQLVESGGGLVQAGESLRLSCAASGSTFDFKVMGWYRQPPGKQREGVAAIRLSGNMHYAESVKGRFTISKANAKNTVYLQMNSLRPEDTAVYYCKVNIRGQDYWGQGTQVTVSSGGGGSGGGGSGGGGSGGGGSGGGGSGGGGSGGGGSEVQLVESGGGLVQPGGSLRLSCVASGRIFSSNAMGWFRQAPGKEREFVAAITWRSGGSAYYADSAKGRFTISRDNAKNTVYLQMNSLKPEDTAVYYCAAGGSSWLSFPPDYWGQGTQVTVSS
notes: Biparatopic: two VHH joined by a GlySer linker; also called 127D1-35GS-163E3; 127D1-163E3; not shown: C-terminal c-myc tag and His6 tag coded by pAX100
B3: CXCR20023 (bispecific antibody)
chain: EVQLVESGGGLVQAGGSLRLSCAASGRTFSDYAMGWFRQAPGKEREFVAAITWNGGRVFYTASVKGRFTISRDNAKNTMYLQMNSLKPEDTAVYYCAADKDRRTDYLGHPVAYWGQGTQVTVSSGGGGSGGGGSGGGGSGGGGSGGGGSGGGGSGGGGSEVQLVESGGGLVQPGGSLRLSCVASGRIFSSNAMGWFRQAPGKEREFVAAITWRSGGSAYYADSAKGRFTISRDNAKNTVYLQMNSLKPEDTAVYYCAAGGSSWLSFPPDYWGQGTQVTVSS
notes: Two different VHH joined by a GlySer linker; also called 163D2-35GS-163E3; not shown: C-terminal c-myc tag and His6 tag coded by pAX100
B4: CXCR20024 (VHH)
chain: EVQLVESGGGLVQPGGSLRLSCVASGRIFSSNAMGWFRQAPGKEREFVAAITWRSGGSAYYADSAKGRFTISRDNAKNTVYLQMNSLKPEDTAVYYCAAGGSSWLSFPPDYWGQGTQVTVSSGGGGSGGGGSGGGGSGGGGSGGGGSGGGGSGGGGSEVQLVESGGGLVQPGGSLRLSCVASGRIFSSNAMGWFRQAPGKEREFVAAITWRSGGSAYYADSAKGRFTISRDNAKNTVYLQMNSLKPEDTAVYYCAAGGSSWLSFPPDYWGQGTQVTVSS
notes: Bivalent: two VHH joined by a GlySer linker; also called 163E3-35GS-163E3; not shown: C-terminal c-myc tag and His6 tag coded by pAX100
B5: CXCR20031 (bispecific antibody)
chain: EVQLVESGGELVQPGGSLRLSCAASGSILTINAMGWYRQAPGKQRELVVRRTRGGSTTYQDSVKGRFTISADIAKKTMYLQMNSLKPEDTAVYYCMLDDRGGVYWGQGTQVTVSSGGGGSGGGGSGGGGSGGGGSGGGGSGGGGSGGGGSEVQLVESGGGLVQPGGSLRLSCVASGRIFSSNAMGWFRQAPGKEREFVAAITWRSGGSAYYADSAKGRFTISRDNAKNTVYLQMNSLKPEDTAVYYCAAGGSSWLSFPPDYWGQGTQVTVSS
notes: Biparatopic: two VHH joined by a GlySer linker; also called 2B2-35GS-163E3; not shown: C-terminal c-myc tag and His6 tag coded by pAX100
B6: CXCR20022 (VHH)
chain: EVQLVESGGGLVQAGGSLRLSCAASGRTFSDYAMGWFRQAPGKEREFVAAITWNGGRVFYTASVKGRFTISRDNAKNTMYLQMNSLKPEDTAVYYCAADKDRRTDYLGHPVAYWGQGTQVTVSSGGGGSGGGGSGGGGSGGGGSGGGGSGGGGSGGGGSEVQLVESGGGLVQAGGSLRLSCAASGRTFSDYAMGWFRQAPGKEREFVAAITWNGGRVFYTASVKGRFTISRDNAKNTMYLQMNSLKPEDTAVYYCAADKDRRTDYLGHPVAYWGQGTQVTVSS
notes: Bivalent: two VHH joined by a GlySer linker; also called 163D2-35GS-163D2; not shown: C-terminal c-myc tag and His6 tag coded by pAX100
B7: CXCR20032 (bispecific antibody)
chain: EVQLVESGGELVQPGGSLRLSCAASGSILTINAMGWYRQAPGKQRELVVRRTRGGSTTYQDSVKGRFTISADIAKKTMYLQMNSLKPEDTAVYYCMLDDRGGVYWGQGTQVTVSSGGGGSGGGGSGGGGSGGGGSGGGGSGGGGSGGGGSEVQLVESGGGLVQAGGSLRLSCAASGRTFSDYAMGWFRQAPGKEREFVAAITWNGGRVFYTASVKGRFTISRDNAKNTMYLQMNSLKPEDTAVYYCAADKDRRTDYLGHPVAYWGQGTQVTVSS
notes: Biparatopic: two VHH joined by a GlySer linker; also called 2B2-35GS-163D2; not shown: C-terminal c-myc tag and His6 tag coded by pAX100
B8: 126B11 (VHH)
VHH: EVQLVESGGGLVQAGGSLTLSCAVSGSSFRINTMGWYRRAPGKQRELVAARDRGGYINYVDSVKGRFTVSRDNAKPTMYLQMNSLKPEDTAVYYCHAGTQDRTGRNFDHWGQGTQVTVSS
notes: Tested as periplasmic extract only; not shown: C-terminal c-myc tag and His6 tag coded by the vector
B9: 145D3 (VHH)
VHH: EVQLVESGGGLVQAGGSLSLSCAASGLIFRLSGMAWYRQAPGRQREWVAVLTKDGTLHYADPVKGRFTISRNNAENTWYLQMNSLKPEDTAIYYCNTGRYWGQGTQVTVSS
notes: Tested as periplasmic extract only; also called 145D03; not shown: C-terminal c-myc tag and His6 tag coded by the vector
B10: 143B3 (VHH)
VHH: EVQLVESGGGLVQPGGSLRLSCAASGFTFSTYWMYWVRQAPGKGLDWVSAINAGGDSTYYADPVKGRFTISRDNNKNTLYLQMNSLKPEDTALYYCATVRGTARDLDYWGQGTQVTVSS
notes: Tested as periplasmic extract only; also called 143B03; not shown: C-terminal c-myc tag and His6 tag coded by the vector
B11: 143A5 (VHH)
VHH: KVQLVESGGGLVQAGGSLRLSCAASGRAFNYYVMAWFRQAQGKEREFVAAISTRGSMTKYSDSVQGRFTISRDNAKNTVYLHMNSLKPEDTAVYYCAADPRGSSWSFSSGGYDYWGQGTQVTVSS
notes: Tested as periplasmic extract only; also called 143A05; not shown: C-terminal c-myc tag and His6 tag coded by the vector
B12: 145C9 (VHH)
VHH: EVQLVESGGGLVQAGGSLRLSCAASGFTFDDYAIGWFRQAPGKERERVSCISGSDGSTYYADSVKGRFTISSDNAKNTVYLQMNNLKPEDTAVYYCAAYWGLTLRLWMPPHRYDYWGQGTQVTVSS
notes: Tested as periplasmic extract only; also called 145C09; not shown: C-terminal c-myc tag and His6 tag coded by the vector

Target: T1, Human CXCR2
Assay: cell-based or functional assay

| FLIPR % inhibition of max | FLIPR IC50 (GRO-α induced calcium release) | Binder |
| --- | --- | --- |
| 100% | 12.2 nM | B1 |
| 100% | 7.32 nM | B2 |
| 100% | 14.8 nM | B3 |
| 100% | 26.4 nM | B4 |
| 100% | 15.2 nM | B5 |
| 100% | 9.34 nM | B6 |
| 100% | 14.7 nM | B7 |

Target: T2, Cynomolgus CXCR2
Assay: cell-based or functional assay

| FLIPR % inhibition of max | FLIPR IC50 (GRO-α induced calcium release) | Binder |
| --- | --- | --- |
| 100% | 7.88 nM | B1 |
| 100% | 2.31 nM | B2 |
| 100% | 12 nM | B3 |
| 100% | 11.8 nM | B4 |
| 100% | 4.26 nM | B5 |
| 100% | 8.64 nM | B6 |
| 100% | 3.65 nM | B7 |

Target: T1, Human CXCR2
Assay: cell-based or functional assay
Remark: another data set of the same source

| [35S]GTPγS % inhibition of max (GRO-α) | [35S]GTPγS IC50 (GRO-α) | [35S]GTPγS % inhibition of max (ENA-78) | [35S]GTPγS % inhibition of max (IL-8) | [35S]GTPγS IC50 (ENA-78) | [35S]GTPγS IC50 (IL-8) | Binder |
| --- | --- | --- | --- | --- | --- | --- |
| 100% | 0.891 nM | – | – | – | – | B1 |
| 100% | 0.551 nM | 100% | 100% | 0.787 nM | 0.827 nM | B2 |
| 100% | 26.6 nM | – | – | – | – | B3 |
| 100% | 30.3 nM | – | – | – | – | B4 |
| – | – | 100% | 100% | 1.38 nM | 0.84 nM | B5 |
| 100% | 28.5 nM | – | – | – | – | B6 |
| – | – | 100% | 100% | 0.116 nM | 0.997 nM | B7 |

Target: T1, Human CXCR2
Assay: FACS competition vs 3 nM FMAT-Blue Gro-α
Description: (§1) Multivalent anti-CXCR2Nanobodies were titrated against 3 nM FMAT-Blue-labeled Gro-α in the FACS ligand competition assay on human and cynomolgus CXCR2 (Table 14). On human CXCR2, blocking potencies range between double digit nM and sub-nM whereas on cynomolgus CXCR2, they range between single and double digit nM.

| % inhibition of max | IC50 | Binder |
| --- | --- | --- |
| 99% | 0.9 nM | B1 |
| 99.5% | 1.09 nM | B2 |
| 99% | 4.28 nM | B3 |
| 99% | 5.27 nM | B4 |
| 100% | 0.49 nM | B5 |
| 100% | 4.14 nM | B6 |
| 100% | 0.5 nM | B7 |

Target: T2, Cynomolgus CXCR2
Assay: FACS competition vs 3 nM FMAT-Blue Gro-α
Description: as §1

| % inhibition of max | IC50 | Binder |
| --- | --- | --- |
| 98.5% | 2.08 nM | B1 |
| 98.5% | 1.85 nM | B2 |
| 96% | 6.61 nM | B3 |
| 95% | 5.32 nM | B4 |
| 99% | 1.98 nM | B5 |
| 98% | 8.01 nM | B6 |
| 99% | 1.91 nM | B7 |

Target: T1, Human CXCR2
Assay: FACS, periplasmic extract vs FMAT Blue Gro-α
Description: Periplasmic extracts (as described above) were analyzed on FACS for competition with Gro-α in binding to human CXCR2. 2×10⁵ cells were incubated with a ½ dilution of periplasmic extracts in FACS buffer (PBS+10% fetal bovine serum (Sigma, F7524)) for 30 minutes at 4° C. Then, an equal volume of 6 nM of FMAT Blue-labeled human Gro-α in FACS buffer was added and incubation was continued for another 30 minutes at 4° C. in the dark. Cells were then washed three times in FACS buffer and finally resuspended in FACS buffer. Dead cells were stained with propidium iodide (Sigma, P4170). Samples were then analyzed on a FACSarray (BD Biosciences).

| FACS Gro-α competition (% inhibition) | Binder |
| --- | --- |
| 36.9% | B8 |
| 77.9% | B9 |
| 70.8% | B10 |
| 72.6% | B11 |
| 53.5% | B12 |
